Measured values from paper PMC9407234.

Key:
XPA M32-4/70-2 = XPA M32-4/70-2 (UniProt P23025 1-273, R30E;K31E;R32E;R34E;E106K;F112A); assay: MST
XPA M32-4 = XPA M32-4 (UniProt P23025 1-273, R30E;K31E;R32E;R34E); assay: MST
XPA M32-4, sequence (P23025 whole entry R30E/K31E/R32E/R34E): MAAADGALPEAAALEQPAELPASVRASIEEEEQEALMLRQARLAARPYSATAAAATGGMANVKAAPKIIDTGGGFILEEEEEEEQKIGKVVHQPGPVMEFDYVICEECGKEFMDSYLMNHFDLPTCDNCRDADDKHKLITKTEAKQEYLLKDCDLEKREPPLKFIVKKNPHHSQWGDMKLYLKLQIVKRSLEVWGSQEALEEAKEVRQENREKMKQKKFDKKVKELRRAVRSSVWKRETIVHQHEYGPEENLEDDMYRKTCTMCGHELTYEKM

XPA M32-4/70-2, sequence (P23025 whole entry R30E/K31E/R32E/R34E/E106K/F112A): as the sequence (P23025 whole entry R30E/K31E/R32E/R34E) above, with E106K, F112A counted along it

B1: 4-nt hairpin NER junction mimic (structured_DNA)
DNA: TTTTGCGGCCGCTTTTGCGGCCGC
With B1 as the binder, how does the Kd (XPA M32-4/70-2) read?
The Kd was 10 ± 3 µM.

What about the Kd (XPA M32-4) of the same binder?
The Kd was 8.4 ± 2.3 µM.
